Assay results reported in paper PMC10449631 (Nature Chemical Biology, 2023).
Where “and” joins values, the source holds several entries; their conditions need not be identical. Equal entries are not always repeated. No end group written: not given here.

Legend:
PaAP_T = target: T1, PaAP_T (Pseudomonas aeruginosa, UniProt Q02PA2); experiment: Enzymatic assay with amino acid-pNA substrates (kcat, KM); format: biochemical; conditions: amino acid–pNA substrate
T1 construct: PaAP (WT, residues 27–536); His6 (TEV cleavable) (N, cleaved yes); made in house; host or cells: E. coli SHuffle T7
Procedure: (§1) Aminopeptidase activity was determined spectrophotometrically primarily using amino Leu-pNA. Other commercially available pNA substrates (isoleucine, methionine, alanine, valine, proline, arginine, lysine and phenylalanine) were also assayed. Leu-pNA was incubated with enzyme (100 nM) in assay buffer (50 mM Tris, pH 8.5, 200 mM NaCl) at 25 °C. A pNA release caused an absorbance increase at 405 nm, monitored using a BMG Labtech plate reader. […] Data were plotted in GraphPad Prism (version 9) and the Michalis Menten equation was used for fitting.

PaAP [1] = experiment: PaAP in reaction buffer (50 mM Tris, pH 8.5, 100 mM NaCl); conditions: P. aeruginosa, room temperature, up to overnight
PaAP [2] = target: T2, PaAP (Pseudomonas aeruginosa, UniProt Q02PA2, A513L/Q514V/S515P); experiment: Peptide digestion assay (overnight and time course, LC-MS/MALDI); format: biochemical; conditions: for substrate of / degraded by PaAP (words): incubated with PaAP overnight, LC–MS or MALDI; for P0 (parent peptide, LC–MS signal): 500 μM peptide, 1 μM PaAP_T, listed as ERWGHDFIK-NH3
T2 construct: PaAP (WT, residues 27–536); His6 (TEV cleavable) (N, cleaved yes); made in house; host or cells: E. coli SHuffle T7
Procedure: A variety of peptides of varying lengths and compositions were incubated with PaAP at room temperature. Assays were performed by incubating (overnight at room temperature) 500 μM of substrate (peptides) with 1 μM enzyme (PaAP) in reaction buffer (50 mM Tris, pH 8.5, 100 mM NaCl). The reactions were quenched by heating to 100 °C for 10 min followed by centrifugation at 17,000g in a benchtop centrifuge to remove precipitate. Supernatant was collected and samples were analyzed by LC–MS. Initial trial assays were carried out in the presence and absence (control) of enzyme to determine if the substrate was degraded (single or triplicate experiments). Time-course assays were performed on selected peptide substrates in triplicate. A 300 μl reaction (including 500 μM of substrate) was initiated by the addition of 1 μM enzyme. The reaction was incubated at room temperature. The reaction was quenched at set timepoints by the removal of 30 μl aliquots, which were immediately heated to 100 °C for 10 min. The samples were analyzed by LC–MS using a Xevo Q-ToF (Waters) as described below, searching for masses of all peptide breakdown products.
Peptide degradation time courses were fitted to exponential equations as follows:
P0 peptide consumption was fitted to a single exponential equation (equation (2)) with the format2 yt=y0−Plateaue^−kt+Plateau
Time courses for the formation and decay of peptide intermediates were fitted to double exponential equations (equation (3)) and single exponential equations, followed by a linear phase (4)3 yt=y0−Plateau1e^−k1t+y0−Plateau2e^−k2t+Plateau 4 yt=y0−Plateaue^−kt+vt+Plateau where y(t) is the product formed at time t, y0 − Plateau is the amplitude of the exponential phase, k is the observed rate constant for the exponential phase, y0 is the value of y at time 0, Plateau is the value of y after exponential phase, C is the offset and v is the slope of the linear phase.
Peptide samples incubated in the presence and absence of PaAP were initially analyzed by MALDI. The peptide sample (0.5 µl at 10 µM) was spotted along with matrix (0.5 µl 10 mg ml^−1 α-cyano-4-hydroxycinnamic acid in ACN/0.1% TFA (50/50, vol/vol)) on a stainless steel MALDI plate and left to dry. The sample plate was loaded into a Sciex 4800 MALDI mass spectrometer. The laser voltage was adjusted to give a good signal to noise strength, and 50 shots were acquired in a random pattern across the spot and spectra combined. The spectra were externally calibrated with Sciex Pepcal mix (range: 500–4,000 m/z).

[3] = target: T3, PaAP_T (P. aeruginosa aminopeptidase, C-terminal truncated) (Pseudomonas aeruginosa, UniProt Q02PA2); experiment: Inhibition of PaAP_T in the Leu-pNA aminopeptidase assay (KI, IC50); format: biochemical; conditions: for IC50 plot data (PaAP_T activity at given peptide concentration): (S) = 2 mM, PaAP 100 nM
T3 construct: PaAP (WT, residues 27–536); His6 (TEV cleavable) (N, cleaved yes); made in house; host or cells: E. coli SHuffle T7
T3 sequence (Q02PA2 whole entry, looked up): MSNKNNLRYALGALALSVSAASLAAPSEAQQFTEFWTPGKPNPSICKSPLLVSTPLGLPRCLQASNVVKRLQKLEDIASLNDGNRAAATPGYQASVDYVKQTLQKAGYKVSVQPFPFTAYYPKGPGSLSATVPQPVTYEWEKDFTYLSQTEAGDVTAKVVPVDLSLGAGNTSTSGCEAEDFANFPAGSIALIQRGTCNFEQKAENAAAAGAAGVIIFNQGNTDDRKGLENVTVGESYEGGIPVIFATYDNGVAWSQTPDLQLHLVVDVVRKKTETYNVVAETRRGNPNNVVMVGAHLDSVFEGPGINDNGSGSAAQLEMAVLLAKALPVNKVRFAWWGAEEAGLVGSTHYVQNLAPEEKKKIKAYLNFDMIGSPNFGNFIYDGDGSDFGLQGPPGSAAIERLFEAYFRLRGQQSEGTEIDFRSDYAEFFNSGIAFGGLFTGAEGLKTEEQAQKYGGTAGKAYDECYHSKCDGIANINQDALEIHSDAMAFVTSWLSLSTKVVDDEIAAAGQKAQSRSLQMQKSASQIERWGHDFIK
Procedure: as §1
Inhibition assays were carried out with the following peptides: linear-ERWGHDFIK (PaAP C-terminal residues), cyclic-ERWGHDFIK, N-acetylated and C-amidated ERWGHDFIK. IC50 values were determined by varying peptide concentration at a fixed substrate concentration (fixed at KM, (S) = 2 mM, PaAP concentration was 100 nM). […] KI values were determined by fitting the data to equation (1) (Morrison’s equation):1 v=1−Et+I+KI−Et+I+KI^2−4EtIKI/2Et where v is the velocity, Et is the total enzyme concentration, I is the concentration of inhibitor and KI is the equilibrium dissociation constant for the inhibitor. IC50 values increased when measured at increasing S, consistent with competitive inhibition.

T2 sequence (Q02PA2 37-516 A513L/Q514V/S515P): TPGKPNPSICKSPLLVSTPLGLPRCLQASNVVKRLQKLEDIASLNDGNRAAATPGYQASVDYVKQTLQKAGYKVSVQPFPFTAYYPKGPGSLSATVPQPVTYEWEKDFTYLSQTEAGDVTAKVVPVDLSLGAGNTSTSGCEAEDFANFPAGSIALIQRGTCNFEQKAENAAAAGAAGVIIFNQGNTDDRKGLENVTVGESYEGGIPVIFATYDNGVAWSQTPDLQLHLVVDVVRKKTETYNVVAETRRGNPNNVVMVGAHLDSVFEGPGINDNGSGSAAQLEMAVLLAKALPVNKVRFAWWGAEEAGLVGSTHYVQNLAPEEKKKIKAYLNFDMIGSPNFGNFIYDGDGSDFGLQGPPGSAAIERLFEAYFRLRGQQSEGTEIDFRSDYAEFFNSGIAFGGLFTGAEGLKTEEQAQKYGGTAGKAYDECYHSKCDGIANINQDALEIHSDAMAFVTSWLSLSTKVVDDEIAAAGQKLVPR

**Q.** Which kcat (PaAP_T) does the source give for `NCCCC[C@H](N)C(=O)Nc1ccc([N+](=O)[O-])cc1` [Lys-pNA] here?
**A.** The kcat was 4.13 s⁻¹.

**Q.** How did the not cleaved (PaAP [1]) turn out when “cyclic-ERWGHDFIK cyclized by isopeptide bond” was run?
**A.** Its not cleaved is “not degraded when incubated overnight with PaAP”.

**Q.** With `CC(C)C[C@H](N)C(=O)Nc1ccc([N+](=O)[O-])cc1` [Leu-pNA] as the compound, how does the kcat (PaAP_T) read?
**A.** Its kcat is 11.5 s⁻¹.

**Q.** For Ac-ERWGHDFIK, which not cleaved (PaAP [1]) is on record?
**A.** The not cleaved was “not a substrate”.

**Q.** `CC(C)[C@H](N)C(=O)Nc1ccc([N+](=O)[O-])cc1` [Val-pNA] was tested. Which kcat (PaAP_T) did it give?
**A.** Its kcat is 0.115 s⁻¹.

**Q.** Which results are given for “ERWGHDFIK-NH2: ERWGHDFIK peptide harboring a C-terminal amide”?
**A.** substrate of / degraded by PaAP (words) (PaAP [2]; listed as ERWEGHDFIK-NH3): good substrate; P0 (parent peptide, LC–MS signal) (PaAP [2]; time 0 minutes): 747781 and 703178 and 683749; P0 (parent peptide, LC–MS signal) (PaAP [2]; time 5 minutes): 717720 and 659374 and 657747; P0 (parent peptide, LC–MS signal) (PaAP [2]; time 10 minutes): 666366 and 611681 and 573626; P0 (parent peptide, LC–MS signal) (PaAP [2]; time 30 minutes): 456167 and 415831 and 416655; P0 (parent peptide, LC–MS signal) (PaAP [2]; time 60 minutes): 206401 and 213826 and 168991; P0 (parent peptide, LC–MS signal) (PaAP [2]; time 90 minutes): 48119.3 and 55308.2 and 38290.8; P0 (parent peptide, LC–MS signal) (PaAP [2]; time 120 minutes): 7764.71 and 8223.82 and 5808.71; P0 (parent peptide, LC–MS signal) (PaAP [2]; time 180 minutes): 323.386 and 411.426 and 320.297; relative rate of degradation by PaAP (PaAP [2]; time-course assay, LC–MS): processed at a faster rate than unmodified ERWGHDFIK; IC50 relative to unmodified linear ERWGHDFIK ([3]; Leu-pNA assay): increased IC50 value; inhibition of PaAP_T ([3]; Leu-pNA assay): very poor inhibitors; IC50 plot data (PaAP_T activity at given peptide concentration) ([3]; log(I) 0, listed as ERWGHDFIK-NH3): 100.509 and 101.823 and 100.804; IC50 plot data (PaAP_T activity at given peptide concentration) ([3]; log(I) 0.39794, listed as ERWGHDFIK-NH3): 100.885 and 102.922 and 101.877; IC50 plot data (PaAP_T activity at given peptide concentration) ([3]; log(I) 0.69897, listed as ERWGHDFIK-NH3): 100.054 and 101.233 and 108.07; IC50 plot data (PaAP_T activity at given peptide concentration) ([3]; log(I) 1, listed as ERWGHDFIK-NH3): 99.2493 and 105.174 and 106.059; IC50 plot data (PaAP_T activity at given peptide concentration) ([3]; log(I) 1.39794, listed as ERWGHDFIK-NH3): 96.4075 and 101.34 and 94.2091; IC50 plot data (PaAP_T activity at given peptide concentration) ([3]; log(I) 1.69897, listed as ERWGHDFIK-NH3): 90.5898 and 93.2172 and 95.2547; IC50 plot data (PaAP_T activity at given peptide concentration) ([3]; log(I) 2, listed as ERWGHDFIK-NH3): 71.9303 and 76.8365 and 72.5737; IC50 plot data (PaAP_T activity at given peptide concentration) ([3]; log(I) 2.39794, listed as ERWGHDFIK-NH3): 36.7024 and 39.9464 and 37.7748; IC50 plot data (PaAP_T activity at given peptide concentration) ([3]; log(I) -0.30103, listed as ERWGHDFIK-NH3): 101.126 and 105.737 and 97.1046; IC50 plot data (PaAP_T activity at given peptide concentration) ([3]; log(I) -0.60206, listed as ERWGHDFIK-NH3): 99.866 and 101.85 and 100.456; IC50 plot data (PaAP_T activity at given peptide concentration) ([3]; log(I) -1, listed as ERWGHDFIK-NH3): 101.475 and 103.619 and 100.617; IC50 plot data (PaAP_T activity at given peptide concentration) ([3]; log(I) -1.30103, listed as ERWGHDFIK-NH3): 101.126 and 99.5174 and 100.483

**Q.** “Ac-ERWGHDFIK: N-terminally acetylated ERWGHDFIK” was tested. Which “substrate of / degraded by PaAP (words)” value (PaAP [2]) did it give?
**A.** Its value is “is not a substrate”.

**Q.** And the “IC50 relative to unmodified linear ERWGHDFIK” value ([3]; Leu-pNA assay)?
**A.** Its value is “stronger inhibitor (lower IC50)”.

**Q.** What about the “IC50 plot data (PaAP_T activity at given peptide concentration)” value (shortened to “IC50 plot data”) ([3]; log(I) 0) of the same compound?
**A.** Its value is 14.1847 and 14.0241 and 15.9398.

**Q.** And the “IC50 plot data” value ([3]; log(I) 0.39794)?
**A.** The value was 10.4257 and 10.2008 and 11.7831.

**Q.** And the “IC50 plot data” value ([3]; log(I) 0.69897)?
**A.** The value was 7.759 and 8.43 and 9.606.

**Q.** What about the “IC50 plot data” value ([3]; log(I) 1) of the same compound?
**A.** The value was 6.157 and 6.578 and 7.803.

**Q.** What about the “IC50 plot data” value ([3]; log(I) 1.39794) of the same compound?
**A.** The value was 4.438 and 4.522 and 4.703.

**Q.** And the “IC50 plot data” value ([3]; log(I) 1.69897)?
**A.** Its value is 3.468 and 3.7992 and 3.497.

**Q.** What about the “IC50 plot data” value ([3]; log(I) 2) of the same compound?
**A.** The value was 2.457 and 2.349 and 2.539.

**Q.** What about the “IC50 plot data” value ([3]; log(I) 2.39794) of the same compound?
**A.** Its value is 1.727 and 1.944 and 1.78.

**Q.** What about the “IC50 plot data” value ([3]; log(I) -0.30103) of the same compound?
**A.** Its value is 21.8755 and 21.5663 and 25.7068.

**Q.** And the “IC50 plot data” value ([3]; log(I) -0.60206)?
**A.** The value was 31.9277 and 31.253 and 35.5141.

**Q.** And the “IC50 plot data” value ([3]; log(I) -1)?
**A.** Its value is 57.8715 and 59.5181 and 63.1727.

**Q.** What about the “IC50 plot data” value ([3]; log(I) -1.30103) of the same compound?
**A.** Its value is 96.8273 and 103.173.
